From FireProtDB
Where “and” joins values, the source holds several entries; their conditions need not be identical. Equal values may be shown once.

Details: whole UniProt chain shown
[1] = Saccharolobus solfataricus (strain ATCC 35092 / DSM 1617 / JCM 11322 / P2), pH 5.5, Thermal, CD, Acetate 50 mM
[2] = Staphylococcus aureus, pH 7, 30 °C, GdnHCl, CD, Sodium phosphate/Sodium sulfate 1.0 mM/10 mM/, reversible: yes
[3] = Staphylococcus aureus, pH 7, Thermal, DSC, phosphate 100 mM, reversible: yes(75%)
[4] = Staphylococcus aureus, pH 7.5, 25 °C, Urea, CD, Tris-HCl 0.1 M, KCl 0.2 M, reversible: yes
[5] = Staphylococcus aureus (strain NCTC 8325 / PS 47), pH 8.5, Urea, fluorescence, Tris-Cl, transition: 2, reversible: yes
[6] = Salmonella phage P22, pH 7.3, Thermal, CD, Potassium phosphate 10 mM, KCl 100 mM, reversible: yes
[7] = Salmonella phage P22, pH 7.5, 20 °C, GdnHCl, CD, Tris-HCl 50 mM, KCl 100 mM, reversible: yes
[8] = Salmonella phage P22, pH 7.5, 20 °C, GdnHCl, Fluorescence, Tris-HCl 50 mM, KCl 100 M, reversible: yes
[9] = Salmonella phage P22, pH 7.5, 20 °C, Urea, Fluorescence, Tris-HCl 50 mM, KCl 100 mM, reversible: yes
[10] = Salmonella phage P22, pH 7.5, 25 °C, GdnHCl, CD, Tris-HCl 50 mM, KCl 250 mM
[11] = Salmonella phage P22, pH 7.5, 25 °C, GdnHCl, Fluorescence, Tris-HCl 50 mM, KCl 100 M, reversible: yes
[12] = Salmonella phage P22, pH 7.5, 25 °C, Urea, CD, Tris 50 mM, KCl 50 mM
[13] = Salmonella phage P22, pH 7.5, 25 °C, Urea, CD, Tris-Cl 10 mM, KCl 250 mM
[14] = Salmonella phage P22, pH 7.5, 25 °C, Urea, CD, Tris-HCl 50 mM, KCl 250 mM, reversible: yes
[15] = Salmonella phage P22, pH 7.5, Thermal, CD, Tris-HCl 50 mM, KCl 250 mM, reversible: yes
[16] = Salmonella phage P22, pH 7.5, Thermal, CD, Tris-HCl 50 mM, KCl 100 M, reversible: yes

B1: Cytidine deaminase wild type, Q9S3M0 (protein)
chain: MDVEKLIAESKKAREQAYVPYSKFPVGAALLAEDGTIYHGCNIENSAYSMTNCAERTAFFKAVSDGVRSFKALAVVADTEGPVSPCGACRQVIAEFCNGSMPVYLTNLKGDIEETTVAKLLPGAFSKEDLSYAAEQ
- unfolding free energy (Sporosarcina psychrophila, pH 7, 25 °C, GdnHCl, CD, potassium phosphate 20 mM, reversible: no): 3 kcal/mol

B2: Acylphosphatase wild type, Q97ZL0 (protein)
chain: MKKWSDTEVFEMLKRMYARVYGLVQGVGFRKFVQIHAIRLGIKGYAKNLPDGSVEVVAEGYEEALSKLLERIKQGPPAAEVEKVDYSFSEYKGEFEDFETY
- unfolding free energy (Saccharolobus solfataricus (strain ATCC 35092 / DSM 1617 / JCM 11322 / P2), pH 5.5, 28 °C, GdnHCl, CD, Acetate 50 mM): 11.6 kcal/mol
- unfolding free energy (Saccharolobus solfataricus (strain ATCC 35092 / DSM 1617 / JCM 11322 / P2), pH 5.5, 81 °C, GdnHCl, CD, Acetate 50 mM): 4.94 kcal/mol
- Tm [1]: 101 °C
- heat capacity change of unfolding [1]: 1.15 kcal/mol/K
- unfolding enthalpy (van 't Hoff) [1]: 105 kcal/mol

B3: wild type, Q9EYL5 (protein)
chain: MTKKLLTLFIVSMLILTACGKKESATTSSKNGKPLVVVYGDYKCPYCKELDEKVMPKLRKNYIDNHKVEYQFVNLAFLGKDSIVGSRASHAVLMYAPKSFLDFQKQLFAAQQDENKEWLTKELLDKHIKQLHLDKETENKIIKDYKTKDSKSWKAAEKDKKIAKDNHIKTTPTAFINGEKVEDPYDYESYEKLLKDKIK
- denaturant midpoint (higher = more stable) [2]: 1.66 M
- unfolding free energy [2]: 8 kcal/mol
- unfolding free energy (Staphylococcus aureus, pH 7, 30 °C, Thermal, DSC, phosphate 100 mM, reversible: yes(75%)): 11.6 kcal/mol and 15.8 kcal/mol
- unfolding free energy (Staphylococcus aureus, pH 7, 30 °C, Thermal, Fluorescence, Sodium phosphate 100 mM, EDTA 1 mM, reversible: yes): 11.1 kcal/mol
- unfolding free energy (Staphylococcus aureus, pH 7, 30 °C, Thermal, Fluorescence, Sodium phosphate 100 mM, reversible: yes): 7 kcal/mol
- unfolding free energy (Staphylococcus aureus, pH 7, 30 °C, Thermal, Fluorescence, phosphate 100 mM, reversible: yes(75%)): 8.29 kcal/mol and 12.6 kcal/mol
- Tm [3]: 68.4 °C
- heat capacity change of unfolding [3]: 2.22 kcal/mol/K
- unfolding enthalpy (calorimetric) [3]: 148 kcal/mol
- unfolding enthalpy (van 't Hoff) [3]: 137 kcal/mol
- denaturant midpoint (higher = more stable) [4]: 4.2 M and 5.6 M and 5.62 M
- unfolding free energy [4]: 8.7 kcal/mol and 12.3 kcal/mol and 12.9 kcal/mol

B4: Methylated-DNA--protein-cysteine methyltransferase wild type, Q97VW7 (protein)
chain: MLVYGLYKSPLGYITVAKDDKGFIMLDFCDCVEGNSRDDSSFTEFFHKLDLYFEGKPINLREPINLKTYPFRLSVFKEVMKIPWGKVMTYKQIADSLGTSPRAVGMALSKNPILLIIPCHRVIAENGIGGYSRGVKLKRALLELEGVKIPE
- Tm (Saccharolobus solfataricus (strain ATCC 35092 / DSM 1617 / JCM 11322 / P2), pH 7.4, Thermal, DSF, PBS, transition: 2): 82.9 °C

B5: Putative peptidyl-prolyl cis-trans isomerase wild type, Q2FZU9 (protein)
chain: MANYPQLNKEVQQGEIKVVMHTNKGDMTFKLFPNIAPKTVENFVTHAKNGYYDGITFHRVINDFMIQGGDPTATGMGGESIYGGAFEDEFSLNAFNLYGALSMANSGPNTNGSQFFIVQMKEVPQNMLSQLADGGWPQPIVDAYGEKGGTPWLDQKHTVFGQIIDGETTLEDIANTKVGPQDKPLHDVVIESIDVEE
- denaturant m value [5]: 0.85 kcal/mol/M and 1.18 kcal/mol/M
- denaturant midpoint (higher = more stable) [5]: 3.19 M and 1.83 M
- unfolding free energy [5]: 2.66 kcal/mol and 2.17 kcal/mol

B6: Transcriptional repressor arc wild type, P03050 (protein)
chain: MKGMSKMPQFNLRWPREVLDLVRKVAEENGRSVNSEIYQRVMESFKKEGRIGA
- Tm [6]: 54 °C
- heat capacity change of unfolding [6]: 1.6 kcal/mol/K
- unfolding enthalpy (van 't Hoff) [6]: 71 kcal/mol
- unfolding free energy [6]: 7.3 kcal/mol
- denaturant m value [7]: 3.27 kcal/mol/M
- unfolding free energy [7]: 11.1 kcal/mol
- denaturant m value [8]: 2.98 kcal/mol/M
- unfolding free energy [8]: 9.97 kcal/mol
- denaturant m value [9]: 1.37 kcal/mol/M
- denaturant midpoint (higher = more stable) [9]: 6.7 M
- unfolding free energy [9]: 9.58 kcal/mol
- denaturant m value [10]: 3 kcal/mol/M
- denaturant midpoint (higher = more stable) [10]: 1.1 M
- unfolding free energy [10]: 10.3 kcal/mol
- denaturant m value [11]: 3.03 kcal/mol/M
- unfolding free energy [11]: 10.1 kcal/mol
- Tm (Salmonella phage P22, pH 7.5, 25 °C, Thermal, CD, Tris-HCl 50 mM, KCl 50 mM): 56.8 °C
- unfolding free energy (Salmonella phage P22, pH 7.5, 25 °C, Thermal, CD, Tris-HCl 50 mM, KCl 250 mM): 11 kcal/mol
- denaturant m value [12]: 1.5 kcal/mol/M
- unfolding free energy [12]: 10.4 kcal/mol
- denaturant m value [13]: 1.21 kcal/mol/M
- unfolding free energy [13]: 9.92 kcal/mol
- denaturant m value [14]: 1.36 kcal/mol/M and 1.57 kcal/mol/M and 1.64 kcal/mol/M
- denaturant midpoint (higher = more stable) [14]: 4.65 M
- unfolding free energy [14]: 6.3 kcal/mol and 10.9 kcal/mol and 11 kcal/mol
- Tm (Salmonella phage P22, pH 7.5, Thermal, CD, Potassium phosphate 10 mM, KCl 100 mM): 54 °C
- Tm (Salmonella phage P22, pH 7.5, Thermal, CD, Tris-HCl 50 mM, KCl 50 mM): 56.8 °C
- Tm [15]: 58.3 °C and 59 °C and 57.9 °C
- unfolding enthalpy (van 't Hoff) [15]: 62.3 kcal/mol and 58.5 kcal/mol
- Tm [16]: 53.4 °C
- unfolding enthalpy (van 't Hoff) [16]: 55.2 kcal/mol

B7: Scaffolding protein wild type, P26748 (protein)
chain: MEPTTEIQATEDLTLSGDHAAASADSLVVDNANDNAGQEEGFEIVLKDDETAPKQDPAKNAEFARRRIERKRQRELEQQMEAVKRGELPESLRVNPDLPPQPDINAYLSEEGLAKYDYDNSRALAAFNAANTEWLMKAQDARSNAVAEQGRKTQEFTQQSAQYVEAARKHYDAAEKLNIPDYQEKEDAFMQLVPPAVGADIMRLFPEKSAALMYHLGANPEKARQLLAMDGQSALIELTRLSERLTLKPRGKQISSAPPADQPITGDVSAANKDAIRKQMDAAASKGDVETYRKLKAKLKGIR
- Tm (Salmonella phage P22, pH 7.6, Thermal, Fluorescence, phosphate 0.3 micro M, NaCl 0.3 micro M): 58 °C
